Assay [1] addresses T1, HaloTag-fused talin1 (HT-talin1), endogenous knock-in in mouse primary T cells (mouse (endogenous knock-in in mouse T …, UniProt P26039 1-2541, HaloTag labelled with HT SaraFluor 650T Ligand)). The experiment in a line: Th2 cells, on ICAM1.
In assay [2] the target is T1, HaloTag-fused talin1 (HT-talin1), …. The assay can be described thus: naive T cells, on ICAM1.
The target is the same in assay [3]. The experiment in a line: naive T cells, on ICAM1. This is another data set of the same source.
For assay [4] the target is unchanged. The assay can be described thus: activated T cells, on ICAM1.
Assay [5] has the same target. The assay can be described thus: Th2 cells, on PECAM1.
Assay [6] has the same target. The experiment in a line: naive T cells, on PECAM1.

Here are results for two molecules from PMC12637224, “The nonconserved integrin cytoplasmic region determines integrin subtype–specific characteristics by modulating talin1 binding kinetics” (The Journal of Biological Chemistry, 2025).

In general, koff refers to the rate constant with which the complex falls apart. Low values mean slow dissociation, high ones fast dissociation.

B1: LFA1 (αL/β2 integrin), endogenous on mouse primary T cells (receptor)
chain 1: YNLDTRPTQSFLAQAGRHFGYQVLQIEDGVVVGAPGEGDNTGGLYHCRTSSEFCQPVSLHGSNHTSKYLGMTLATDAAKGSLLACDPGLSRTCDQNTYLSGLCYLFPQSLEGPMLQNRPAYQECMKGKVDLVFLFDGSQSLDRKDFEKILEFMKDVMRKLSNTSYQFAAVQFSTDCRTEFTFLDYVKQNKNPDVLLGSVQPMFLLTNTFRAINYVVAHVFKEESGARPDATKVLVIITDGEASDKGNISAAHDITRYIIGIGKHFVSVQKQKTLHIFASEPVEEFVKILDTFEKLKDLFTDLQRRIYAIEGTNRQDLTSFNMELSSSGISADLSKGHAVVGAVGAKDWAGGFLDLREDLQGATFVGQEPLTSDVRGGYLGYTVAWMTSRSSRPLLAAGAPRYQHVGQVLLFQAPEAGGRWNQTQKIEGTQIGSYFGGELCSVDLDQDGEAELLLIGAPLFFGEQRGGRVFTYQRRQSLFEMVSELQGDPGYPLGRFGAAITALTDINGDRLTDVAVGAPLEEQGAVYIFNGKPGGLSPQPSQRIQGAQVFPGIRWFGRSIHGVKDLGGDRLADVVVGAEGRVVVLSSRPVVDVVTELSFSPEEIPVHEVECSYSAREEQKHGVKLKACFRIKPLTPQFQGRLLANLSYTLQLDGHRMRSRGLFPDGSHELSGNTSITPDKSCLDFHFHFPICIQDLISPINVSLNFSLLEEEGTPRDQKVGRAMQPILRPSIHTVTKEIPFEKNCGEDKKCEANLTLSSPARSGPLRLMSSASLAVEWTLSNSGEDAYWVRLDLDFPRGLSFRKVEMLQPHSRMPVSCEELTEGSSLLTKTLKCNVSSPIFKAGQEVSLQVMFNTLLNSSWEDFVELNGTVHCENENSSLQEDNSAATHIPVLYPVNILTKEQENSTLYISFTPKGPKTQQVQHVYQVRIQPSAYDHNMPTLEALVGVPWPHSEDPITYTWSVQTDPLVTCHSEDLKRPSSEAEQPCLPGVQFRCPIVFRREILIQVTGTVELSKEIKASSTLSLCSSLSVSFNSSKHFHLYGSKASEAQVLVKVDLIHEKEMLHVYVLSGIGGLVLLFLIFLALYKVGFFKRNLKEKMEADGGVPNGSPPEDTDPLAVPGEETKDMGCLEPLRESDKD
chain 2: QECTKYKVSSCRDCIQSGPGCSWCQKLNFTGPGEPDSLRCDTRAQLLLKGCPADDIMDPRSIANPEFDQRGQRKQLSPQKVTLYLRPGQAAAFNVTFRRAKGYPIDLYYLMDLSYSMLDDLNNVKKLGGDLLQALNEITESGRIGFGSFVDKTVLPFVNTHPEKLRNPCPNKEKACQPPFAFRHVLKLTDNSNQFQTEVGKQLISGNLDAPEGGLDAIMQVAACPEEIGWRNVTRLLVFATDDGFHFAGDGKLGAILTPNDGRCHLEDNMYKRSNEFDYPSVGQLAHKLSESNIQPIFAVTKKMVKTYEKLTEIIPKSAVGELSDDSSNVVQLIKNAYYKLSSRVFLDHSTLPDTLKVTYDSFCSNGASSIGKSRGDCDGVQINNPVTFQVKVMASECIQEQSFVIRALGFTDTVTVQVRPQCECQCRDQSREQSLCGGKGVMECGICRCESGYIGKNCECQTQGRSSQELERNCRKDNSSIVCSGLGDCICGQCVCHTSDVPNKEIFGQYCECDNVNCERYNSQVCGGSDRGSCNCGKCSCKPGYEGSACQCQRSTTGCLNARLVECSGRGHCQCNRCICDEGYQPPMCEDCPSCGSHCRDNHTSCAECLKFDKGPFEKNCSVQCAGMTLQTIPLKKKPCKERDSEGCWITYTLQQKDGRNIYNIHVEDSLECVKGPNVAAIVGGTVVGVVLIGVLLLVIWKALTHLTDLREYRRFEKEKLKSQWNNDNPLFKSATTTVMNPKFAES
Turning to B1, the koff in assay [1] was 0.17 s⁻¹; in assay [2], 0.288 s⁻¹; in assay [3], 0.316 s⁻¹; in assay [4], 0.279 s⁻¹.

B2: αV/β3 integrin, endogenous on mouse primary T cells (receptor)
chain 1: FNLDVESPAEYAGPEGSYFGFAVDFFEPSTSSRMFLLVGAPKANTTQPGIVEGGQVLKCECSSSRRCQPIEFDSTGNRDYAKDDPLEFKSHQWFGASVRSKQDKILACAPLYHWRTEMKQEREPVGTCFLQDGTKTVEYAPCRSKNIDADGQGFCQGGFSIDFTKADRVLLGGPGSFYWQGQLISDQVAEIISKYDPNVYSIKYNNQLATRTAQAIFDDSYLGYSVAVGDFNGDGIEDFVSGVPRAARTLGMVYIYDGKNMSSLHNFTGEQMAAYFGFSVAATDINGDDYADVFIGAPLFMDRGSDGKLQEVGQVSVSLQRAVGDFQTTKLNGFEVFARFGSAIAPLGDLDQDGFNDIAIAAPYGGEDKKGLVYIFNGRSTGLNSVPSQILEGQWAAQSMPPSFGYSMKGATDVDRNGYPDLVVGAFGVDRAVLYRARPVVTVNAGLEVYPSILNQDNKICPLPGTALKVSCFNVRFCLKADGKGTLPRKLHFQVELLLDKLKQKGAIRRALFLHNRSPVHSKTMTVFRGGQMQCEELVAYLRDESEFRDKLTPITIFMEYRLDQRTAADATGLQPILNQFTPANVSRQAHILLDCGEDNVCKPKLEVSVNSDQKKIYIGDDNPLTLTVKAQNQGEGAYEAELIVSIPPQADFIGVVRNNEALARLSCAFKTENQTRQVVCDLGNPMKAGTQLLAGLRFSVHQQSEMDTSVKFDLKIQSSNSFDNVSPVVSYKVDLAVLAAVEIRGVSSPDHIFLPIPNWEYKENPETEEDVGPIVQHIYELRNNGPSSFSKAILNLQWPYKYNNNTLLYILHYDIDGPMNCTADTEINPLRIKTPEKNDTAAAGQGERNHLITKRDLTLREGDVHTLGCGIAKCLQITCQVGRLDRGKSAILYVKSLLWTETFMNKENQNHSYSLKSSASFNIIEFPYKNLPIEDLFNSTLVTTNITWGIQPAPMPVPVWVIILAVLAGLLLLAVLVFVMYRMGFFKRVRPPQEEQEREQLQPHENGEGNSET
chain 2: ESNICTTRGVNSCQQCLAVSPVCAWCSDETLSQGSPRCNLKENLLKDNCAPESIEFPVSEAQILEARPLSSKGSGSSAQITQVSPQRIALRLRPDDSKIFSLQVRQVEDYPVDIYYLMDLSFSMKDDLSSIQTLGTKLASQMRKLTSNLRIGFGAFVDKPVSPYMYISPPQAIKNPCYNMKNACLPMFGYKHVLTLTDQVSRFNEEVKKQSVSRNRDAPEGGFDAIMQATVCDEKIGWRNDASHLLVFTTDAKTHIALDGRLAGIVLPNDGHCHIGTDNHYSASTTMDYPSLGLMTEKLSQKNINLIFAVTENVVSLYQNYSELIPGTTVGVLSDDSSNVLQLIVDAYGKIRSKVELEVRDLPEELSLSFNATCLNNEVIPGLKSCVGLKIGDTVSFSIEAKVRGCPQEKEQSFTIKPVGFKDSLTVQVTFDCDCACQAFAQPSSPRCNNGNGTFECGVCRCDQGWLGSMCECSEEDYRPSQQEECSPKEGQPICSQRGECLCGQCVCHSSDFGKITGKYCECDDFSCVRYKGEMCSGHGQCNCGDCVCDSDWTGYYCNCTTRTDTCMSTNGLLCSGRGNCECGSCVCVQPGSYGDTCEKCPTCPDACSFKKECVECKKFNRGTLHEENTCSRYCRDDIEQVKELTDTGKNAVNCTYKNEDDCVVRFQYYEDTSGRAVLYVVEEPECPKGPDILVVLLSVMGAILLIGLATLLIWKLLITIHDRKEFAKFEEERARAKWDTANNPLYKEATSTFTNITYRGT
B2: the koff in assay [5] turned out to be 0.264 s⁻¹; in assay [6], 0.326 s⁻¹.
